Experimental data: patent publication US20040014159

How the values were obtained:
[1] = system: T1, bis-PTK5p-R110 (YIY(PO3)GAFKRRG-R110-GRRKFAG(PO3)YIY)
T1 sequence: YIYGAFKRRG

[2] = system: T2, bis-SPK-2 (KKALRRASLKG-R110-GKLSARRLAKK)
T2 sequence: KKALRRASLKG

[3] = system: T3, bis-PTK-5 (YIYGAFKRRG-R110-GRRKFAGYIY)
T3 sequence: YIYGAFKRRG

[4] = system: T4, bis-STP-R110 (RRAT(PO3)VA-R110-AV(PO3)TARR)
T4 sequence: RRATVA

[5] = system: T5, LRRASLG-R110-GLSARRL, bis-rhodamine peptide kinase substrate (bis-kemptide)
T5 sequence: LRRASLG

[6] = system: T6, bis-SPK-4 (KKALRKASVRG-R110-GRVSAKRLAKK)
T6 sequence: KKALRKASVRG

[7] = system: T7, kemptide-AMC (LRRASLG-AMC)
T7 sequence: LRRASLG

[8] = biological target: T8, bis-PTK5p-R110 (YIY(PO3)GAFKRRG-R110-GRRKFAG(PO3)YIY) (not fully specified)
T8 chain: YIYGAFKRRG

YOP 51
fluorescence output after aminopeptidase M [1]: A similar profile was obtained with other tyrosine phosphatases, including YOP 51

PKG
fluorescence output after aminopeptidase M [2]: the change in output fluorescence in each assay was inversely proportional to the amount of enzyme in the reaction (Results not shown)

PKC
fluorescence output after aminopeptidase M [2]: the change in output fluorescence in each assay was inversely proportional to the amount of enzyme in the reaction (Results not shown)

tyrosine kinase lck
fluorescence output after aminopeptidase M, with and without 100 uM ATP [3]: where 100 um ATP was included the decrease in fluorescence output was proportional to the increase in amount of enzyme in the reaction, and little or no change was observed in the absence of ATP

AKT
fluorescence output after aminopeptidase M [2]: the change in output fluorescence in each assay was inversely proportional to the amount of enzyme in the reaction (Results not shown)

PP1
fluorescence output after aminopeptidase M [4]: The results obtained show excellent proportionality between the fluorescence output and dephosphorylation of the substrate

serine/threonine phosphatase PP2A
fluorescence output after Aminopeptidase II [4]: an increase in phosphatase activity resulted in an increase in fluorescence | fluorescence output after aminopeptidase M [4]: PP2A dephosphorylated the substrate efficiently, and fluorescence increased proportionally to the amount of enzyme in the reaction

catalytic subunit of cAMP-dependent protein kinase (PKA)
fluorescence output (RFU) after aminopeptidase M [5]: there is a corresponding decrease in fluorescence output with increasing concentration or units of enzyme in the reaction | kinase reaction, fluorescence output after aminopeptidase M [2]: the peptide substrate bis-SPK-2 is a better substrate for PKA than the peptide substrate bis-SPK-4 | kinase reaction, fluorescence output after aminopeptidase M [6]: the peptide substrate bis-SPK-2 is a better substrate for PKA than the peptide substrate bis-SPK-4 | fluorescence output (AMC) after aminopeptidase M, with and without 50 uM ATP [7]: In the presence of ATP, the fluorescence output decreased in proportion to the increase in amount of enzyme

PP2C
fluorescence output after aminopeptidase M [4]: The results obtained show excellent proportionality between the fluorescence output and dephosphorylation of the substrate

PP2B
fluorescence output after aminopeptidase M [4]: The results obtained show excellent proportionality between the fluorescence output and dephosphorylation of the substrate

B1: CD45, recombinant human receptor protein tyrosine phosphatase (protein)
chain: SCNLDEQQELVERDDEKQLMNVEPIHADILLETYKRKIADEGRLFLAEFQSIPRVFSKFPIKEARKPFNQNKNRYVDILPYDYNRVELSEINGDAGSNYINASYIDGFKEPRKYIAAQGPRDETVDDFWRMIWEQKATVIVMVTRCEEGNRNKCAEYWPSMEEGTRAFGDVVVKINQHKRCPDYIIQKLNIVNKKEKATGREVTHIQFTSWPDHGVPEDPHLLLKLRRRVNAFSNFFSGPIVVHCSAGVGRTGTYIGIDAMLEGLEAENKVDVYGYVVKLRRQRCLMVQVEAQYILIHQALVEYNQFGETEVNLSELHPYLHNMKKRDPPSEPSPLEAEFQRLPSYRSWRTQHIGNQEENKSKNRNSNVIPYDYNRVPLKHELEMSKESEHDSDESSDDDSDSEEPSKYINASFIMSYWKPEVMIAAQGPLKETIGDFWQMIFQRKVKVIVMLTELKHGDQEICAQYWGEGKQTYGDIEVDLKDTDKSSTYTLRVFELRHSKRKDSRTVYQYQYTNWSVEQLPAEPKELISMIQVVKQKLPQKNSSEGNKHHKSTPLLIHCRDGSQQTGIFCALLNLLESAETEEVVDIFQVVKALRKARPGMVSTFEQYQFLYDVIASTYPAQNGQVKKNNHQEDKIEFDNEVDKVKQDANCVNPLGAPEKLPEAKEQAEGSEPTSGTEGPEHSVNGPASPALNQGS
fluorescence output after aminopeptidase M [8]: the increase in the fluorescence output is proportional to the amount of phosphatase added per reaction

B2: PTP-1B, soluble tyrosine phosphatase (enzyme, UniProt P18031 1-435, looked up, species assumed)
Tyrosine-protein phosphatase non-receptor type 1: MEMEKEFEQIDKSGSWAAIYQDIRHEASDFPCRVAKLPKNKNRNRYRDVSPFDHSRIKLHQEDNDYINASLIKMEEAQRSYILTQGPLPNTCGHFWEMVWEQKSRGVVMLNRVMEKGSLKCAQYWPQKEEKEMIFEDTNLKLTLISEDIKSYYTVRQLELENLTTQETREILHFHYTTWPDFGVPESPASFLNFLFKVRESGSLSPEHGPVVVHCSAGIGRSGTFCLADTCLLLMDKRKDPSSVDIKKVLLEMRKFRMGLIQTADQLRFSYLAVIEGAKFIMGDSSVQDQWKELSHEDLEPPPEHIPPPPRPPKRILEPHNGKCREFFPNHQWVKEETQEDKDCPIKEEKGSPLNAAPYGIESMSQDTEVRSRVVGGSLRGAQAASPAKGEPSLPEKDEDHALSYWKPFLVNMCVATVLTAGAYLCYRFLFNSNT
fluorescence output after aminopeptidase M [1]: the increase in the fluorescence output is proportional to the amount of phosphatase added per reaction
